The record followed here is publication PMC9965858.

The target of experiment [1] is Dengue virus type 2 non-structural protein 1 (NS1) produced by DENV2-infected A549 cells (Dengue virus type 2) (UniProt P14340). Put plainly: SDS-PAGE of samples heated or not heated, then Western blot.
The target in experiment [2] is recombinant DENV2-NS1^V5-tag (Dengue virus type 2) (UniProt P14340). The description is as above.

The substance “Dengue virus type 2 non-structural protein 1 (NS1) produced by DENV2-infected A549 cells (from UniProt P14340) (natural protein)” gave a stoichiometry N in experiment [1] of 2.

As to “recombinant DENV2-NS1^V5-tag (from UniProt P14340 776-1127) (natural protein)”, in experiment [2], the stoichiometry N was found to be 2.
